The labels stand for the following.
B1: FAM46D (parent)
chain: LELKFVSSLRRQFEFSVDSFQIVL
B2: PRIM1 (parent)
chain: CCSSADICPKCWTLMTMAIRIIDR
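Further: lentivirally expressed fusions sorted by FACS into six bins by GFP to DsRed ratio, PSI derived from sequencing read proportions per bin multiplied by bin number.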

Variants of B1 are the subject of the first data set. The experiment in a line: protein stability index of a GFP-peptide fusion (GPS, HEK-293T) (PSI 1-6); higher = more stable. The settings on record: c terminus: a fixed tail appended.
As for LELKFVSSRRRQFEFSVDSFQIVL, the protein stability index was determined as 3.73.

On to LELKFVSSTRRQFEFSVDSFQIVL, for which the protein stability index came to 2.99.

Take LELKFVSSLRRQFEFSVDSFVIVL: the protein stability index came to 2.67.

Regarding LELKFVSSLRRQFEFSVDSFPIVL, the protein stability index is 2.71.

For LELKFVSSLRRQFEFSVDSFCIVL, the protein stability index is 3.58.

LELKFVSSLRRQFEFSVDSFTIVL: the protein stability index was 2.68.

For the variant LELKFVSSLRRQFEFSVDSFHIVL, the protein stability index is 2.63.

Take LELKFVSSLRRQFEFSVDSEQIVL: the protein stability index worked out at 3.3.

Take LELKFVSSLRRQFEFSVDSPQIVL: the protein stability index was determined as 3.04.

With LELKFVSSLRRQFEFSVDSSQIVL, the protein stability index stood at 2.55.

LELKFVSMLRRQFEFSVDSFQIVL: the protein stability index came to 3.34.

With LELKFVSHLRRQFEFSVDSFQIVL, the protein stability index is 3.22.

For the variant LELKFVSSLIRQFEFSVDSFQIVL, the protein stability index worked out at 3.38.

For the variant LELKFVSSLRDQFEFSVDSFQIVL, the protein stability index was 1.97.

As to LELKFVSSLRIQFEFSVDSFQIVL, the protein stability index came to 2.54.

As for LELKFVSSLRRQFNFSVDSFQIVL, the protein stability index turned out to be 2.89.

On to LELKFVSSLRRQFQFSVDSFQIVL, for which the protein stability index was determined as 2.24.

In the case of LELDFVSSLRRQFEFSVDSFQIVL, the protein stability index came to 3.48.

Consider LELKFVSSLRRQDEFSVDSFQIVL, for which the protein stability index stood at 2.54.

In the case of LELKFVSSLRRQTEFSVDSFQIVL, the protein stability index was determined as 3.34.

With LELKFVSSLRRQFEFSVDSFQISL, the protein stability index is 2.88.

Consider LELKFVSSLRRQFEFSIDSFQIVL, for which the protein stability index turned out to be 2.8.

Regarding LELKPVSSLRRQFEFSVDSFQIVL, the protein stability index came to 3.01.

With LELKFVSSLRREFEFSVDSFQIVL, the protein stability index was determined as 2.55.

As to LELKFVSSLRRKFEFSVDSFQIVL, the protein stability index is 3.09.

Variants of B2 are the subject of a further data set. The data set is described as above. As to conditions: c terminus: a fixed tail appended.
On to CCSSADICPKCWTLMTMAIRIIDV, for which the protein stability index worked out at 2.46.

As to CCSSADICPKCWTLMTMAIRIIDW, the protein stability index was 2.19.

For CCSSADICPKCWTLMTMAIRIIDD, the protein stability index amounted to 2.09.

For the variant CCSSADICPKCWTLMTMAIRIIDL, the protein stability index was determined as 1.91.

In the case of CCSSADICPKCWTLMTMAIRIIDI, the protein stability index stood at 1.69.

Regarding CCSSADICPKCWTLMTMAIRIIDQ, the protein stability index was 1.52.

As for CCSSADICPKCWTLMTMAIRIIDG, the protein stability index amounted to 1.81.

In the case of CCSSADICPKCWTLMTMAIRIIDN, the protein stability index is 1.8.

As for CCSSADICPKCWTLMTMAIRIIDF, the protein stability index came to 1.68.

As for CCSSADICPKCWTLMTMAIRIIDC, the protein stability index is 2.19.

As for CCSSADICPKCWTLMTMAIRIIDY, the protein stability index amounted to 1.78.

Take CCSSADICPKCWTLMTMAIRIIDK: the protein stability index was found to be 1.25.

Take CCSSADICPKCWTLMTMAIRIIDH: the protein stability index is 1.95.

Regarding CCSSADICPKCWTLMTMAIRIIDP, the protein stability index turned out to be 3.32.

On to CCSSADICPKCWTLMTMAIRIIDA, for which the protein stability index amounted to 1.89.

Consider CCSSADICPKCWTLMTMAIRIIDT, for which the protein stability index came to 1.97.

For the variant CCSSADICPKCWTLMTMAIRIIDM, the protein stability index was determined as 2.12.

For the variant CCSSADICPKCWTLMTMAIRIIER, the protein stability index came out at 1.94.

For CCSSADICPKCWTLMTMAIRIIPR, the protein stability index stood at 2.42.

On to CCSSADICPKCWTLMTMAIRIITR, for which the protein stability index was 1.82.

Consider CCSSADICPKCWTLMTMAIRIISR, for which the protein stability index came out at 2.96.

For the variant CCSSADICPKCWTLMTMAIRIIRR, the protein stability index came to 1.68.

As to CCSSADICPKCWTLMTMAIRIIAR, the protein stability index is 2.29.

Turning to CCSSADICPKCWTLMTMAIRIILR, the protein stability index was 2.25.

On to CCSSADICPKCWTLMTMAIRIIVR, for which the protein stability index is 2.31.

Turning to CCSSADICPKCWTLMTMAIRIIIR, the protein stability index was found to be 1.84.

Regarding CCSSADICPKCWTLMTMAIRIIYR, the protein stability index worked out at 1.61.

As for CCSSADICPKCWTLMTMAIRIIMR, the protein stability index was found to be 1.64.

With CCSSADICPKCWTLMTMAIRIINR, the protein stability index was determined as 1.47.

In the case of CCSSADICPKCWTLMTMAIRIIFR, the protein stability index came out at 1.78.

On to CCSSADICPKCWTLMTMAIRIIQR, for which the protein stability index was found to be 2.09.

For CCSSADICPKCWTLMTMAIRIIKR, the protein stability index was determined as 1.41.

Consider CCSSADICPKCWTLMTMAIRIIWR, for which the protein stability index is 2.15.

As to CCSSADICPKCWTLMTMAIRIICR, the protein stability index stood at 2.19.

CCSSADICPKCWTLMTMAIRIIHR: the protein stability index is 1.69.

CCSSADICPKCWTLWTMAIRIIDR: the protein stability index stood at 1.98.

For the variant CCSSADICPKCWTLSTMAIRIIDR, the protein stability index was 1.95.

For CCSSADICPKCWTLVTMAIRIIDR, the protein stability index is 2.96.

As to CCSSADICPKCWTLYTMAIRIIDR, the protein stability index was determined as 1.63.

For the variant CCSSADICPKCWTLTTMAIRIIDR, the protein stability index turned out to be 2.34.

Regarding CCSSADICPKCWTLMTHAIRIIDR, the protein stability index was determined as 2.38.

Turning to CCSSADICPKCWTLMTRAIRIIDR, the protein stability index was found to be 1.7.

For the variant CCSSADICPKCWTLMTCAIRIIDR, the protein stability index was determined as 1.15.

On to CCSSADICPKCWTLMTNAIRIIDR, for which the protein stability index is 2.48.

CCSSADICPKCWTLMTGAIRIIDR: the protein stability index came to 1.96.

As to CCSSADICPKCWTLMTTAIRIIDR, the protein stability index is 2.09.

With CCSSADICPKCWTLMTWAIRIIDR, the protein stability index was determined as 2.19.

As for CCSSADICPKCWTLMTDAIRIIDR, the protein stability index stood at 2.33.

As to CCSSADICPKCWTLMTPAIRIIDR, the protein stability index was determined as 2.29.

For the variant CCSSADICPKCWTLMTVAIRIIDR, the protein stability index was determined as 1.6.

Consider CCSSADICPKCWTLMTKAIRIIDR, for which the protein stability index worked out at 2.56.

Consider CCSSADICPKCWTLMTEAIRIIDR, for which the protein stability index stood at 2.5.

CCSSADICPKCWTLMTAAIRIIDR: the protein stability index turned out to be 2.03.

For CCSSADICPKCWTLMTSAIRIIDR, the protein stability index worked out at 2.95.

On to CCSSADICPKCWTLMTFAIRIIDR, for which the protein stability index worked out at 1.94.

For CCSSADICPKCWTLMTIAIRIIDR, the protein stability index is 1.94.

In the case of CCSSADICPKCWTLMTQAIRIIDR, the protein stability index was 2.54.

As for CCSSADICPKCWTLMTYAIRIIDR, the protein stability index was found to be 2.15.

Turning to CCSSADICPKCWTLMTLAIRIIDR, the protein stability index was 1.74.

As for CCSSADICPKCWTLMGMAIRIIDR, the protein stability index is 2.56.

On to CCSSADICPKCWTLMYMAIRIIDR, for which the protein stability index was determined as 2.08.

On to CCSSADICPKCWTLMSMAIRIIDR, for which the protein stability index was 1.49.

As to CCSSADICPKCWTLMPMAIRIIDR, the protein stability index was found to be 2.09.

Consider CCSSADICPKCWTLMDMAIRIIDR, for which the protein stability index came out at 2.07.

CCSSADICPKCWTLMKMAIRIIDR: the protein stability index is 1.61.

Regarding CCSSADICPKCWTLMAMAIRIIDR, the protein stability index is 2.23.

As to CCSSADICPKCWTLMEMAIRIIDR, the protein stability index was 1.48.

For the variant CCSSADICPKCWTLMMMAIRIIDR, the protein stability index was found to be 1.52.

As for CCSSADICPKCWTLMVMAIRIIDR, the protein stability index came to 1.87.
